Assay results reported in patent US20250388881A1, “METHOD FOR IMPROVING THERMOSTABILITY OF PHYTASE, MUTANT AND USE” (priority 2022, published 2025).

Legend:
[1] = molecular target: Yersinia intermedia phytase APPAmut4 (SEQ ID NO: 1) mutant A147C/Y268C (Yersinia intermedia, UniProt Q000T0, A170C/A346L/M382L/V109D/Y291C/Y74E); experiment: Determination of dynamic parameters on sodium phytate: mutant A147C/Y268C; type: biochemical; details: 37° C., pH 5.5, sodium phytate 0.05 to 1.00 mM
[2] = molecular target: Yersinia intermedia phytase APPAmut4 (parent), SEQ ID NO: 1 (Yersinia intermedia, UniProt Q000T0, A346L/M382L/V109D/Y74E); experiment: Determination of dynamic parameters on sodium phytate: phytase APPAmut4; type: biochemical; details: 37° C., pH 5.5, sodium phytate 0.05 to 1.00 mM
[3] = molecular target: Yersinia intermedia phytase APPAmut4 (SEQ ID NO: 1) mutant G65R (Yersinia intermedia, UniProt Q000T0, A346L/G88R/M382L/V109D/Y74E); experiment: Determination of dynamic parameters on sodium phytate: mutant G65R; type: biochemical; details: 37° C., pH 5.5, sodium phytate 0.05 to 1.00 mM
[4] = test system: O=P(O)(O)O[C@H]1[C@H](OP(=O)(O)O)[C@@H](OP(=O)(O)O)[C@H](OP(=O)(O)O)[C@@H](OP(=O)(O)O)[C@H]1OP(=O)(O)O; experiment: Determination of dynamic parameters on sodium phytate: mutant A57C/A103C; type: biochemical, Yersinia intermedia; details: other: A57C/A103C, 37° C., pH 5.5, sodium phytate 0.05 to 1.00 mM
[5] = test system: O=P(O)(O)O[C@H]1[C@H](OP(=O)(O)O)[C@@H](OP(=O)(O)O)[C@H](OP(=O)(O)O)[C@@H](OP(=O)(O)O)[C@H]1OP(=O)(O)O; experiment: Determination of dynamic parameters on sodium phytate: mutant A147C/Y268C; type: biochemical, Yersinia intermedia; details: other: A147C/Y268C, 37° C., pH 5.5, sodium phytate 0.05 to 1.00 mM
[6] = test system: O=P(O)(O)O[C@H]1[C@H](OP(=O)(O)O)[C@@H](OP(=O)(O)O)[C@H](OP(=O)(O)O)[C@@H](OP(=O)(O)O)[C@H]1OP(=O)(O)O; experiment: Determination of dynamic parameters on sodium phytate: mutant E282L; type: biochemical, Yersinia intermedia; details: other: E282L, 37° C., pH 5.5, sodium phytate 0.05 to 1.00 mM
[7] = test system: O=P(O)(O)O[C@H]1[C@H](OP(=O)(O)O)[C@@H](OP(=O)(O)O)[C@H](OP(=O)(O)O)[C@@H](OP(=O)(O)O)[C@H]1OP(=O)(O)O; experiment: Determination of dynamic parameters on sodium phytate: mutant G65R; type: biochemical, Yersinia intermedia; details: other: G65R, 37° C., pH 5.5, sodium phytate 0.05 to 1.00 mM
[8] = test system: O=P(O)(O)O[C@H]1[C@H](OP(=O)(O)O)[C@@H](OP(=O)(O)O)[C@H](OP(=O)(O)O)[C@@H](OP(=O)(O)O)[C@H]1OP(=O)(O)O; experiment: Determination of dynamic parameters on sodium phytate: mutant G101C/V116C; type: biochemical, Yersinia intermedia; details: other: G101C/V116C, 37° C., pH 5.5, sodium phytate 0.05 to 1.00 mM
[9] = test system: O=P(O)(O)O[C@H]1[C@H](OP(=O)(O)O)[C@@H](OP(=O)(O)O)[C@H](OP(=O)(O)O)[C@@H](OP(=O)(O)O)[C@H]1OP(=O)(O)O; experiment: Determination of dynamic parameters on sodium phytate: mutant G365D; type: biochemical, Yersinia intermedia; details: other: G365D, 37° C., pH 5.5, sodium phytate 0.05 to 1.00 mM
[10] = test system: O=P(O)(O)O[C@H]1[C@H](OP(=O)(O)O)[C@@H](OP(=O)(O)O)[C@H](OP(=O)(O)O)[C@@H](OP(=O)(O)O)[C@H]1OP(=O)(O)O; experiment: Determination of dynamic parameters on sodium phytate: mutant R271C/E413C; type: biochemical, Yersinia intermedia; details: other: R271C/E413C, 37° C., pH 5.5, sodium phytate 0.05 to 1.00 mM
[11] = test system: O=P(O)(O)O[C@H]1[C@H](OP(=O)(O)O)[C@@H](OP(=O)(O)O)[C@H](OP(=O)(O)O)[C@@H](OP(=O)(O)O)[C@H]1OP(=O)(O)O; experiment: Determination of dynamic parameters on sodium phytate: mutant R353C/L401C; type: biochemical, Yersinia intermedia; details: other: R353C/L401C, 37° C., pH 5.5, sodium phytate 0.05 to 1.00 mM
[12] = test system: O=P(O)(O)O[C@H]1[C@H](OP(=O)(O)O)[C@@H](OP(=O)(O)O)[C@H](OP(=O)(O)O)[C@@H](OP(=O)(O)O)[C@H]1OP(=O)(O)O; experiment: Determination of dynamic parameters on sodium phytate: phytase APPAmut4; type: biochemical, Yersinia intermedia; details: other: APPAmut4, 37° C., pH 5.5, sodium phytate 0.05 to 1.00 mM

O=P(O)(O)O[C@H]1[C@H](OP(=O)(O)O)[C@@H](OP(=O)(O)O)[C@H](OP(=O)(O)O)[C@@H](OP(=O)(O)O)[C@H]1OP(=O)(O)O [sodium phytate]
kcat/Km [1]: 1.0823e+07 M⁻¹ s⁻¹ | kcat/Km [2]: 1.2322e+07 M⁻¹ s⁻¹ | kcat/Km [3]: 9.009e+06 M⁻¹ s⁻¹

Yersinia intermedia phytase APPAmut4 (SEQ ID NO: 1) mutant A57C/A103C (Yersinia intermedia; A126C/A346L/A80C/M382L/V109D/Y74E)
Km [4]: 180 ± 30 µM | Vmax [4]: 2840 µmol/min/mg | kcat [4]: 2160 ± 130 s⁻¹ | kcat/Km [4]: 1.21e+07 ± 1.37e+06 M⁻¹ s⁻¹

Yersinia intermedia phytase APPAmut4 (SEQ ID NO: 1) mutant A147C/Y268C (Yersinia intermedia; A170C/A346L/M382L/V109D/Y291C/Y74E)
Km [5]: 220 ± 30 µM | Vmax [5]: 3140 µmol/min/mg | kcat [5]: 2380 ± 124 s⁻¹ | kcat/Km [5]: 1.08e+07 ± 1.02e+06 M⁻¹ s⁻¹

Yersinia intermedia phytase APPAmut4 (SEQ ID NO: 1) mutant E282L (Yersinia intermedia; A346L/E305L/M382L/V109D/Y74E)
Km [6]: 150 ± 20 µM | Vmax [6]: 2300 µmol/min/mg | kcat [6]: 1750 ± 67 s⁻¹ | kcat/Km [6]: 1.13e+07 ± 967000 M⁻¹ s⁻¹

Yersinia intermedia phytase APPAmut4 (SEQ ID NO: 1) mutant G65R (Yersinia intermedia; A346L/G88R/M382L/V109D/Y74E)
Km [7]: 220 ± 40 µM | Vmax [7]: 2630 µmol/min/mg | kcat [7]: 2000 ± 77 s⁻¹ | kcat/Km [7]: 9.01e+06 ± 992000 M⁻¹ s⁻¹

Yersinia intermedia phytase APPAmut4 (SEQ ID NO: 1) mutant G101C/V116C (Yersinia intermedia; A346L/G124C/M382L/V109D/V139C/Y74E)
Km [8]: 200 ± 30 µM | Vmax [8]: 2930 µmol/min/mg | kcat [8]: 2230 ± 119 s⁻¹ | kcat/Km [8]: 1.11e+07 ± 1.13e+06 M⁻¹ s⁻¹

Yersinia intermedia phytase APPAmut4 (SEQ ID NO: 1) mutant G365D (Yersinia intermedia; A346L/G388D/M382L/V109D/Y74E)
Km [9]: 140 ± 20 µM | Vmax [9]: 2410 µmol/min/mg | kcat [9]: 1830 ± 58 s⁻¹ | kcat/Km [9]: 1.32e+07 ± 1.15e+06 M⁻¹ s⁻¹

Yersinia intermedia phytase APPAmut4 (SEQ ID NO: 1) mutant R271C/E413C (Yersinia intermedia; A346L/E436C/M382L/R294C/V109D/Y74E)
Km [10]: 180 ± 30 µM | Vmax [10]: 3180 µmol/min/mg | kcat [10]: 2410 ± 154 s⁻¹ | kcat/Km [10]: 1.34e+07 ± 1.54e+06 M⁻¹ s⁻¹

Yersinia intermedia phytase APPAmut4 (SEQ ID NO: 1) mutant R353C/L401C (Yersinia intermedia; A346L/L424C/M382L/R376C/V109D/Y74E)
Km [11]: 200 ± 20 µM | Vmax [11]: 3400 µmol/min/mg | kcat [11]: 2580 ± 124 s⁻¹ | kcat/Km [11]: 1.29e+07 ± 955000 M⁻¹ s⁻¹

Yersinia intermedia phytase APPAmut4 (parent), SEQ ID NO: 1 (Yersinia intermedia; A346L/M382L/V109D/Y74E)
Km [12]: 140 ± 30 µM | Vmax [12]: 2270 µmol/min/mg | kcat [12]: 1720 ± 72 s⁻¹ | kcat/Km [12]: 1.23e+07 ± 1.58e+06 M⁻¹ s⁻¹
